Results on three substances are retold here after patent US5985836A, “Alpha-1 proteinase inhibitor binding peptides” (Bayer Corporation, priority 1998, dated 1999).

Ends that are not written are not given here.

Assay [1] concerns the target T1, A1PI (Homo sapiens, UniProt P01009).
T1 construct: Human plasma is currently the only approved source of therapeutic AlPI
Put plainly: Purification of A1PI from Effluent II+III on peptide column, A1PI mass balance. Format: binding. The settings on record: Table 13, 1 ml Eff. II+III, 4° C.; for Mass A1PI per Eluate Fraction, 1M NaCl / Mass A1PI per Eluate Fraction, 2% Acetic Acid / Mass A1PI per Eluate Fraction, Flowthrough: * Below detection limit; for Percent Eluted by Fraction, 1M NaCl / Percent Eluted by Fraction, 2% Acetic Acid / Percent Eluted by Fraction, Flowthrough: A1PI. As for the experimental part: Sequences 1-11 and 15 were assayed with Effluent II+III (Eff. II+III). Eff. II+III is a process intermediate in the Cohn plasma fractionation process. The feed stream contains 20% (by volume) ethanol, 20-25 mg/ml hSA and approximately 1 mg/ml AlPI. The stream also contains other proteins including anti-thrombin III (AT3), immunoglobin G (IgG), immunoglobin A (IgA), apolipoprotein alpha-1 (Apo A-1), transferrin (Trf), haptoglobin (Hpt), and alpha-1 acid glycoprotein (AAG) at concentrations ranging from 0.1-1 mg/ml.
The columns were assayed using the same technique as the hSA+AlPI experiments, allowing for a 10 minute residence time followed by a constant flow rate of 865 μl/min with step elutions of 1M NaCl, 3M NaCl, and 2% acetic acid. All experiments were conducted at 4° C. The mass balances for the injection of 1 ml Eff. […] The AlPI was enriched from 3% of the total protein in the feed to upwards of 50% in the acid eluate.

The target of assay [2] is T1, A1PI. Put plainly: A1PI binding on peptide-resin column, injection of 1 mg A1PI in equilibration buffer. The settings on record: for % of Total A1PI Eluted by Fraction (Based on Absorbance at 280 nm), 1M NaCl / % of Total A1PI Eluted by Fraction (Based on Absorbance at 280 nm), 2% Acetic Acid / % of Total A1PI Eluted by Fraction (Based on Absorbance at 280 nm), Flowthrough: VIFLVR point mutations, 1 mg A1PI. As for the experimental part:
(§1) Confirmatory binding assays were performed in a column chromatographic format on a microbore HPLC using individual peptide sequences synthesized directly onto the Toyopearl 650 M Chelate resin which had been modified with Totda followed by an alanine residue (A-Totda-Toyopearl), at a final substitution density of 0.1 mmole/g resin. The resin was packed into 0.4×5 cm columns (Thomson, Springfield, Va.) and tested on the Michrom HPLC system (Michrom BioResources, Auburn, Calif.). The elution program for all trials utilized the following method. The column was pre-equilibrated with equilibration buffer (as above). 1 ml of sample was injected and allowed sufficient time to flowthrough the column using equilibration buffer. The column was then washed with step elutions of 1M NaCl and 3M NaCl in equilibration buffer. The column was exposed to equilibration buffer with 0.1M NaCl. Any remaining protein was eluted with elution buffer (2% by volume glacial acetic acid in water).
(§2) A Gilson FC204 fraction collector at the HPLC outlet collected individual eluates for further analysis. Fractions collected from the 2% acetic acid eluates were neutralized with 2M Tris, pH 10.5 to bring the pH to neutrality. The protein samples were reconstituted in equilibration buffer unless otherwise stated. The samples were analyzed by the integration of the absorbance at 280 nm or by immunonephelometry. The specific method of determination is presented for each figure.
Tables 2 and 3 present the elution profiles for 19 sequences based on the injection of 1 mg AlPI in equilibration buffer at 4° C. and 20° C., respectively. The columns were run at a constant flow rate of865 μl/min (413 cm/hr) or 523 μl/min (250 cm/hr). No dependence of the elution profile with flow rate was found. The Percent AlPI Eluted by Fraction represents the amount eluted in the flowthrough, 1M NaCl wash, and 2% acetic acid fractions relative to the total AlPI eluted. The percentages are based on either the integration of the peak areas at […]

For assay [3], the target named is T1, A1PI. Put plainly: A1PI purification from 5 mg hSA + 1 mg A1PI on peptide column, A1PI mass balance. It counts as binding. The note with it: A1PI, 5 mg hSA + 1 mg A1PI; for Percent Eluted by Fraction, 1M NaCl / Percent Eluted by Fraction, 2% Ac. Acid / Percent Eluted by Fraction, 3M NaCl / Percent Eluted by Fraction, Flow: relative to total eluted. As for the experimental part:
as §1, §2
Columns were assayed with a mixture of 5 mg human serum albumin (hSA)+1 mg AlPI at 4° C. (Table 4, Seq. ID 1-11, 15, 17) and 20° C. (Table 5, Seq. ID 1-10, 13, 15, 17). The chromatography method was modified to provide for a 10 minute residence time of sample in the column by decreasing the flow to 17 μl/min (10 cm/hr) upon injection. Following the incubation, the flow was set at 865 μl/min (413 cm/hr) for the step elutions of 1M NaCl, 3M NaCl, and 2% acetic acid. The mass balances presented are based upon immunonephelometry. The Percent Eluted value is protein-specific and based on the amount of the protein eluted in a […]

[4] abbreviates: 1 mg A1PI in equilibration buffer, 4° C.
[5] abbreviates: 1 mg A1PI in equilibration buffer, 20° C.
[6] abbreviates: 20° C., * Below detection limit.

T1 sequence (P01009 25-418): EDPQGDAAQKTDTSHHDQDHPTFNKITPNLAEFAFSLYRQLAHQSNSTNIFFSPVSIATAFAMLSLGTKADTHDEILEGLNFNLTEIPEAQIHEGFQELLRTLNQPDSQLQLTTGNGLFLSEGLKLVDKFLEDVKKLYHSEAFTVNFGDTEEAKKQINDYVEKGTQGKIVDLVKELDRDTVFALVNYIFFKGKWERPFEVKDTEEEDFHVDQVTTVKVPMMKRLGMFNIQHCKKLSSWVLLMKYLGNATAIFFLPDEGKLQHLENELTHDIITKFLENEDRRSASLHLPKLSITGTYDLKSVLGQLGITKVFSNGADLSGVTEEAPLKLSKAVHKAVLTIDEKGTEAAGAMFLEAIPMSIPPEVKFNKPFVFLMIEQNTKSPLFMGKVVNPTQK

With “A I F L V R: point mutation of VIFLVR, position 1 (AIFLVR)”, in assay [1], the “Mass A1PI per Eluate Fraction, 1M NaCl” value is recorded as 0.07 mg; the “Mass A1PI per Eluate Fraction, 2% Acetic Acid” value worked out at 0.59 mg; the “Mass A1PI per Eluate Fraction, Flowthrough” value is 0.33 mg; the “Percent Eluted by Fraction, 1M NaCl” value was 7%. In assay [1], the “Percent Eluted by Fraction, 2% Acetic Acid” value came to 60% and the “Percent Eluted by Fraction, Flowthrough” value was determined as 33%. In addition, in assay [2] (4° C.), the “% of Total A1PI Eluted by Fraction (Based on Absorbance at 280 nm), 1M NaCl” value (“% of Total A1PI Eluted by Fraction … 1M NaCl” for short) stood at 4%; the “% of Total A1PI Eluted by Fraction (Based on Absorbance at 280 nm), 2% Acetic Acid” value was 96%; the “% of Total A1PI Eluted by Fraction (Based on Absorbance at 280 nm), Flowthrough” value (shortened to “% of Total A1PI Eluted by Fraction … Flowthrough”) is 0%. For the same substance, in assay [2] (20° C.), the “% of Total A1PI Eluted by Fraction … 1M NaCl” value stood at 3%; the “% of Total A1PI Eluted by Fraction (Based on Absorbance at 280 nm), 2% Acetic Acid” value amounted to 92%; the “% of Total A1PI Eluted by Fraction … Flowthrough” value was determined as 5%.

Turning to “H I F L V R: point mutation of VIFLVR, position 1 (HIFLVR)”, in assay [1], the “Mass A1PI per Eluate Fraction, 1M NaCl” value is listed as 0.08 mg; the “Mass A1PI per Eluate Fraction, 2% Acetic Acid” value was determined as 0.54 mg; the “Mass A1PI per Eluate Fraction, Flowthrough” value is listed as 0.16 mg; the “Percent Eluted by Fraction, 1M NaCl” value is on record as 10%. Besides, in assay [1], the “Percent Eluted by Fraction, 2% Acetic Acid” value was 69% and the “Percent Eluted by Fraction, Flowthrough” value stood at 21%. For the same substance, in assay [2] (4° C.), the “% of Total A1PI Eluted by Fraction … 1M NaCl” value was 3%; the “% of Total A1PI Eluted by Fraction (Based on Absorbance at 280 nm), 2% Acetic Acid” value was found to be 97%; the “% of Total A1PI Eluted by Fraction … Flowthrough” value came to 0%. Further, in assay [2] (20° C.), the “% of Total A1PI Eluted by Fraction … 1M NaCl” value is listed as 7%; the “% of Total A1PI Eluted by Fraction (Based on Absorbance at 280 nm), 2% Acetic Acid” value was determined as 93%; the “% of Total A1PI Eluted by Fraction … Flowthrough” value was determined as 0%.

As to IWRKYS, in assay [2] (setting [4]), the “Percent A1PI Eluted by Fraction Based on Absorbance at 280 nm, 1M NaCl” value is 94%; the “Percent A1PI Eluted by Fraction Based on Absorbance at 280 nm, 2% Acetic Acid” value came out at 6%; the “Percent A1PI Eluted by Fraction Based on Absorbance at 280 nm, Flowthrough” value stood at 0%. In assay [2] (setting [5]), the “Percent A1PI Eluted by Fraction, 1M NaCl” value turned out to be 81%; the “Percent A1PI Eluted by Fraction, 2% Acetic Acid” value was 19%; the “Percent A1PI Eluted by Fraction, Flowthrough” value was 0%. Moreover, in assay [3] (4° C., * Below detection limit), the “Mass Protein per Eluate Fraction, 1M NaCl” value is reported as 0.68 mg and the “Mass Protein per Eluate Fraction, Flow” value is 0.03 mg. In assay [3] (4° C.), the “Percent Eluted by Fraction, 1M NaCl” value is recorded as 96%; the “Percent Eluted by Fraction, 2% Ac. Acid” value was 0%; the “Percent Eluted by Fraction, 3M NaCl” value came out at 0%; the “Percent Eluted by Fraction, Flow” value stood at 4%. For the same substance, in assay [3] (setting [6]), the “Mass Protein per Eluate Fraction, 1M NaCl” value is reported as 0.58 mg; the “Mass Protein per Eluate Fraction, 2% Ac. Acid” value is recorded as 0.11 mg; the “Mass Protein per Eluate Fraction, 3M NaCl” value worked out at 0.00 mg. In assay [3] (20° C.), the “Percent Eluted by Fraction, 1M NaCl” value was 83%; the “Percent Eluted by Fraction, 2% Ac. Acid” value is reported as 17%; the “Percent Eluted by Fraction, 3M NaCl” value was 0%; the “Percent Eluted by Fraction, Flow” value worked out at 0%.
